{
  "source": "the DeepSol protein solubility set",
  "data": [
    {"assay": "soluble on expression in E. coli; label from the status in PepcDB or PDB records", "values": [
      {"sequence": "MIGATGSGGTGGHNDVVRQGFICPFCMEDFGEYERLICHVENDHPEEDSSDLAGMFVSNVKGFFDKAKRGIQKLDAKKSIADLASNVETEFTETTEKLVERAPLPRIPKPLPPDEILPGTRRSKTREFLSTRELNINEVAVRTNMLIIRLDRLINGGPKDKDPVKRKEFEREVVPWLDDAEAVCCPLCASRFGLTRRRHHCRLCGRVLCHSCSKFLSFDTAKTLTSSSNPLGDTHIIVEEPNTVENEQELLQPEENGRRSFFSLSQKSMDKMKRAMAGAVQKVHSAATGEEIIAGALNEQDLSEHMRVCNLCLRDLHFRESQMDKKEPPEFVQQYDLMKVMIEEVKNLVPTYVRVVTSLKNGESVYSHKHGEELRSKCLEIQKSIDYVSKKIAEGANDKPNSAKEQQLRKNIRLYAVQALQGLIGQMESLPTAEECSNLIIKRKERRAKDFARVNRTVMKMSSSMPQLQEQHSHLNSTSSVSSFGGPSSIDDGWSAEDNDLVFEPSSIEDDTIQTDHPLYEQREQLRKFLFQASATGKLDEMDILERNLKEIEEEMMRLGLSC", "soluble on expression in E. coli": "not soluble"},
      {"sequence": "MIGGGIGISFRNEFFNPQTPVNIPVQGFSNGARLRLVLLPTSADSRFHINLRTPDDIVLHFNARFDEGAVVNNSTSGGGWQSEDRHANPFQQNKIYTLEFVSNGGIISIFVNGAHFADFVERTPSHGVHLIEIEGGVHVHSAHVSH", "soluble on expression in E. coli": "soluble"},
      {"sequence": "MIGQEFRQLLIDKWGYSYDVQLRRTQGKIFLQVMWKYLEQASFPLSESQYQEHLDSITNYLNALGGTIQVQTFITQTKERPRLGKAVSIPLDLGDRSSEWIL", "soluble on expression in E. coli": "not soluble"},
      {"sequence": "MIGSYLKIDSKPLSYQSSKAVLKHLDYNSRFQLHEQCPSLRNVLKVTPGFLNRLEFVGDCVKINGTTYQLKMTPVKLGSTTNHIQLWINGNLYAKTVSEPQNNKELAYLVCKLLRQAWEAVLYVGTLVYGNLIFPGFPKFFKFHVQHLVIGKDQDASDVLRRFGENFQNSSFKSLELFRTSSFEVPLIQSAEKLIINERMDLSALKSRRVHVEFKIDSKFLTDLIDCWLWNGAVGKTEKEAGSVFIFAMKGFREARMFVDDVKMKFEGKFYVDKR", "soluble on expression in E. coli": "not soluble"},
      {"sequence": "MIGYFIITGFAAATLALSTCNLKKVRKPPPATPAKPPAPQKTLKVAPRAAPPRKKKEIFLEEHTPPSTDTDEVSTIPPAEQIRIVENHRRRIGVRPRAGNRVYKKTPSSELVKVENKKSVEKNCKVVKTESGEAEACEKKEDKRNVEKNKKKEKESKEKSKNCYEKKELKKNGSESYAYKKYNKQKNEHIEILVKKTVLRQIRF", "soluble on expression in E. coli": "not soluble"},
      {"sequence": "MIHEITLDGKIVRYKVVEKPVKYVTLRFLEDGTLLVVTPSKEIVREVLIKKRNWILSKLSIIEEAKELAGEGFPLFGRFYSLEIGEKFEIDDKNRIIIYPGIDVLRDWIKKEVKRRAQEISKEFGVAPKRIYVRVMKTKWGSTTWRKSVTLNLSSVALPEELFHYLVIHELAHLIELNHSKRFWSIVARYHPDYKEKRRELKKWWFIVHLNETWRAILQWPGGGSSSSWALEHHHHHH", "soluble on expression in E. coli": "soluble"},
      {"sequence": "MIIDEKRVQEIKNGETSLGIEFGSTRIKAVLIANDFSILASGSFEWETSLENGVWTYSIDEIWKGLQYSYQKLFAEVKEKYGVVLSKIGSIGFSAMMHGYMAFDNKGELLVPFRTWRNTMTEEAAKKLTDLFKFNIPERWSIAHLYQAILRNEPHVEKIDFLTTLAGYIHWQLTGEKVLGIGDASGMFPIDTQTHNYDKNMLETFKNLPEVKKHSLDLEKLLPKVLLAGENAGVLTLEGAKKLDVSGNLQPGIPLCPPEGDAGTGMVATNSVAPRTGNVSAGTSIFAMVVLEKPLNRVHPEIDIVTTPSGDLVAMVHANNGCSDLEAWVNIFQQFTEAINVDMRKDLLYMALYTQAFQGDPDCGGVLAYNYFAGENITGVSEGRPMVVRKAKSNFNLPNFMRAHLFTSLGALKIGMDILLKDEAVKLDKLLGHGGLFKTPIVGQAAVAGAVNAPVSVMETAGEGGAWGIALLASYLRSKENDSTLPEFLSKNVFAGYVAEEVQPDPKDVKGFEEFIERYKKGIAIEQAAVEHLILEHHHHHH", "soluble on expression in E. coli": "not soluble"},
      {"sequence": "MIIGYFDGLCEPKNPGGIATFGFVIYLDNRKIEGYGLAEKPFSINSTNNVAEYSGLICLMETMLRLGISSPIIKGDSQLVIKQMNGEYKVKAKRIIPLYEKAIELKKKLNATLIWVPREENKEADRLSRVAYELVRRGKLRDIGCIILT", "soluble on expression in E. coli": "soluble"},
      {"sequence": "MIIREATVQDYEEVARLHTQVHEAHVKERGDIFRSNEPTLNPSFFQAAVQGEKSTVLVFVDEREKIGAYSVIHLVQTPLLPTMQQRKTVYISDLCVDETRRGGGIGRLIFEAIISYGKAHQVDAIELDVYDFNDRAKAFYHSLGMRCQKQTMELPLLEHHHHHH", "soluble on expression in E. coli": "soluble"},
      {"sequence": "MIITTTPTVENRQIIEYKGLVFGEVVAGANIIRDFFASITDMIGGRSGVYEDKLNVARQEALVELQKQARNIGANAVIGVSIQYQSMGKKDMFIIVATGTAVVIGLEHHHHHH", "soluble on expression in E. coli": "not soluble"},
      {"sequence": "MIKAILIFNNHGKPRLCKFYQHYSEDTQQQIIRETFHLVSKRDENVCNFLEGGLLIGGSDNKLIYRHYATLYFVFCVDSSESELGILDLIQVFVETLDKCFENVCELDLIFHVDKVHNILAEMVMGGMVLETNMNEIVTQIDA", "soluble on expression in E. coli": "soluble"},
      {"sequence": "MIKDPRPLNDKAFIQQCIRQLCEFLTENGYAHNVSMKSLQAPSVKDFLKIFTFLYGFLCPSYELPDTKFEEEVPRIFKDLGYPFALSKSSMYTVGAPHTWPHIVAALVWLIDCIKIHTAMKESSPLFDDGQPWGEETEDGIMHNKLFLDYTIKCYESFMSGADSFDEMNAELQSKLKDLFNVDAFKLESLEAKNRALNEQIARLEQERSTANKANAERLKRLQKSADLYKDRLGLEIRKIYGEKLQFIFTNIDPKNPESPFMFSLHLNEARDYEVSDSAPHLEGLAEFQENVRKTNNFSAFLANVRKAFTATVYQ", "soluble on expression in E. coli": "soluble"},
      {"sequence": "MIKKWLSVALISTAAMMPHTTFASDTLLQKAQQENRQQQTHNASRESGFKKTEQELQAIKNKLVAERAALQAEADTLSVTFSENEAELAQLEEKLRLETGSLGELFGVVRQNAKELESELKHAVTGVDANSYQKDIEAIVAAKSLPTLKQLQAMWRSMEEQVTASGELAKVSFTLLDGEGKEQTVNGVRLGAMALLDDNGYVKWNGQRGDAVNYLRQPENGPTASAFTNGELDSLVIDPSRGILLEQLANSPTLKDRLNAGGVVGQ", "soluble on expression in E. coli": "not soluble"},
      {"sequence": "MIKLAPAALKADLQVRQERVRIAMEEEGYDALLVTSNVNLLYLFGSIYGGAAYLPAEGEPIFFVRRPQVIEEGNVCPIRKLEDIPALIQSRGGVLPRRIMLENDESSYSDIKRQHSIFPNAEYGNATALLRRLRMIKTPGEIELFRRTAAIHGEVYACIPSVFRPGMTDREFQVEIEHLMRNYGSEGIFRTFGSAMEIHMGNVIVGDNAESPSPYDFAMGGGGTDALPLGADGSPMKEGMCVMVDMAGNYSAYISDMTRSYAIGKVPDEARRLHDLSREIQAKVMETAEPGMSCADLYKRSVEMAEEAGAADKFMGTKQQAKFVGHGIGLQINEMPVLMARSKEILTPGMVIAFEPKFVLPGIGAVGNENSFLVTESGVEKLTVCSEELIDLLAVAKQ", "soluble on expression in E. coli": "not soluble"},
      {"sequence": "MIKLGWASFSNTEFAQDIFIKFANQFYKQDDAGTILFELKKTLGVNQLDEIEKNKKVIIVNQFQNSLGKFLLFNKENTKRINSLANEHISSFLKKIFRLSGFKDMLIDVQHHKKLQKCLLREIHLLVCLINSNQFSDELMQIIEWYQYLKKHSSKLFVITASSDKKPVIEPTINEYKAIFGEYLSSFHLDLKNNQSNDLFQKLLDQIKIKATSKTSLR", "soluble on expression in E. coli": "soluble"},
      {"sequence": "MIKMTQSRLHAAQNALAKLHEHRGNTFYPHFHLAPPAGWMNDPNGLIWFNDRYHAFYQHHPMSEHWGPMHWGHATSDDMIHWQHEPIALALGDDNDKDGCFSGSAVDDNGVLSLIYTGHVWLDGAGNDDAIREVQCLATSRDGIHFEKQGVILTPPEGIMHFRDPKVWREADTWWMVVGAKDPGNTGQILLYRGSSLREWAFDRVLAHADAGESYMWECPDFFSLGDQHYLMFSPQGMNAEGYSYRNRFQSGVIPGMWSPGRLFAQSGHFTELDNGHDFYAPQSFLAKDGRRIVIGWMDMWESPMPSKREGWAGCMTLARELSESNGKLLQRPVHEAESLRQQHQSVSPRRISNKYVLQENAQAVEIQLQWALKNSDAEHYGLQLGTGMRLYIDNQSERLILWRYYPHENLDGYRSIPLPQRDTLALRIFIDTSSVEVFINDGEAVMSSRIYPQPEERELSLYASHGVAVLQHGALWLLGLEHHHHHH", "soluble on expression in E. coli": "soluble"},
      {"sequence": "MIKYARQIYSTKQEVIMATYFSDNLTADQQNQVQQIIQQFQHPTLQKDLIVLNTLKKVEKGGDTLRIELQLPFAWNSGAEQLKQAVSDALLKATDCKLIKWAVAYQIATLKRANNQPAVKGVKNIIAVSSGKGGVGKSSVSVNLALALQAQGARVGILDADIYGPSIPHMLGAADQRPTSPDNQHITPIKAHGLSANSIGFLMNEDSATIWRGPMASSALSQLLNETLWDSLDYLVIDMPPGTGDIQLTLSQQIPVTGAVVVTTPQDIALLDAVKGISMFERVSVPVLGIVENMSMHICSECGHHEAIFGTGGAEKMAEKYNVKVLAQLPLHIRIREDLDAGNPTVVRVPENEISQAFLQLAEKVSTELYWQGSVIPSEILFKEVKLEHHHHHH", "soluble on expression in E. coli": "soluble"},
      {"sequence": "MIKYSIRGENLEVTEAIRDYVVSKLEKIEKYFQPEQELDARINLKVYREKTAKVEVTIPLGSITLRAEDVSQDMYGSIDLVTDKIERQIRKNKTKIERKNKNKVATGQLFTDALVEDSNIVQSKVVRSKQIDLKPMDLEEAILQMDLLGHDFFIYVDVEDQTTNVIYRREDGEIGLLEVKESAAALEHHHHHH", "soluble on expression in E. coli": "soluble"},
      {"sequence": "MILGICGSPRKQATEHVLERALSMLEDDGLETEFFTVRGKNISPCRHCDYCLRNKECVLKDDMFPLYELLRRAAGIIIATPVYNGGVSAQIKAIMDRCRALGAEDYDSLRGKVGMGIAVGGDRCGGQEPALMQIHTFYILNGVIPVSGGSFGANLGACFWSRDTLEVLKRTHMDSKPSKRPWACLKGSWTLKDPEILFYSEFILEHHHHHH", "soluble on expression in E. coli": "not soluble"},
      {"sequence": "MILINKRAEKQDYQTILAIWEKSVIVTHDFLTAEDRQFYKEQIPLFLDNVELFLWFAGEEVIGFSGTSERELDMLFLDPVATGNGYGSQILGWLIENKRINLVDVNEQNENATRFYLKHGFVVSSRSDLDGFGKPYPILQLQLKERVNGV", "soluble on expression in E. coli": "soluble"},
      {"sequence": "MILVGNGRLISQDSLNPYMEDGCVVINDNLIEDIGTTEEMKAKYPVHEFIDAGKKIIMPGLINSHMHIYSSFARGMAVPGKPSENFLEILNNLWWRLDKQLTLEDTKYSAYATYIECIKNGVTTVYDHHASPNAIEGSLFTISDVAKDLGIRTCLCYEVSDRDGGNTIQQGINENVNFIKYAQKDDTDMIKGMFGLHAAFTLSDDTLNKCASEMAGLDTGYHVHVAEGLADLQYNVDKYGKRVLERFNDFGVLKEKTIAVHCIYISAEEISFLNKTNTFVVHNPESNMGNAVGCSPAIELLKRGVTVGLGTDGYTSDMFESLKVANIIHKHHLKDPRVGFEESQTMLFDNNRKIAKAYYKNDLGVLKKGAYADVIVVDYIPHTPLTENTIGGHTIFGMSGRSVDTTIINGKVLMKDRKLINIDEESILAKSRELSQNLWNRI", "soluble on expression in E. coli": "not soluble"},
      {"sequence": "MIMANILFIDNFDSFTYNLVDQFRSLGHVVTIYRNNLSADAIEQALLQLDNPVVVLSPGPGAPSETGCMPELLQRLKGKVPMIGICLGHQAIVEAYGGVVAGAGEIIHGKVSMMEHQNHAIYRGLPSPLAIARYHSLVATQVPSALTVTAEVNGLVMSVVNEADKVCGFQFHPESIMTTHGATLLANAIDWALSSTPAQTQFA", "soluble on expression in E. coli": "not soluble"},
      {"sequence": "MINEIKKDAQERMDKSVEALKNNLSKVRTGRAHPSLLSGISVEYYGAATPLNQVANVVAEDARTLAITVFDKELTQKVEKAIMMSDLGLNPMSAGTIIRVPLPPLTEERRKDLVKIVRGEAEGGRVAVRNIRRDANNDLKALLKDKEISEDEDRKAQEEIQKLTDVAVKKIDEVLAAKEKELMEV", "soluble on expression in E. coli": "soluble"}
    ]}
  ]
}
